{
  "source": "patent US7351689",
  "about": "(ZymoGenetics, dated 2008)",
  "binders": {"B1": {"name": "zcyto20 (IL-28A), human (ligand)", "chain": "VPVARLHGALPDARGCHIAQFKSLSPQELQAFKRAKDALEESLLLKDCRCHSRLFPRTWDLRQLQVRERPMALEAELALTLKVLEATADTDPALVDVLDQPLHTLHHILSQFRACIQPQPTAGPRTRGRLHHWLYRLQEAPKKESPGCLEASVTFNLFRLLTRDLNCVASGDLCV"}, "B2": {"name": "IL-29 (SEQ ID NO: 4) (ligand)", "chain": "GPVPTSKPTTTGKGCHIGRFKSLSPQELASFKKARDALEESLKLKNWSCSSPVFPGNWDLRLLQVRERPVALEAELALTLKVLEAAAGPALEDVLDQPLHTLHHILSQLQACIQPQPTAGPRPRGRLHHWLHRLQEAPKKESAGCLEASVTFNLFRLLTRDLKYVADGNLCLRTSTHPEST"}, "B3": {"name": "C1-C3 form (C16-C113) of wild-type E. coli-derived IL-29 (ligand)", "chain": "MGPVPTSKPTTTGKGCHIGRFKSLSPQELASFKKARDALEESLKLKNWSCSSPVFPGNWDLRLLQVRERPVALEAELALTLKVLEAAAGPALEDVLDQPLHTLHHILSQLQACIQPQPTAGPRPRGRLHHWLHRLQEAPKKESAGCLEASVTFNLFRLLTRDLKYVADGNLCLRTSTHPEST"}},
  "key": {"[1]": {"molecular_target": "T1, human IL-28 receptor on transfected 293 HEK cells (IL-28 receptor alpha subunit with endogenous CRF2-4) (human)", "T1 sequence (Q8IU57 whole entry, chain 1 of 2)": "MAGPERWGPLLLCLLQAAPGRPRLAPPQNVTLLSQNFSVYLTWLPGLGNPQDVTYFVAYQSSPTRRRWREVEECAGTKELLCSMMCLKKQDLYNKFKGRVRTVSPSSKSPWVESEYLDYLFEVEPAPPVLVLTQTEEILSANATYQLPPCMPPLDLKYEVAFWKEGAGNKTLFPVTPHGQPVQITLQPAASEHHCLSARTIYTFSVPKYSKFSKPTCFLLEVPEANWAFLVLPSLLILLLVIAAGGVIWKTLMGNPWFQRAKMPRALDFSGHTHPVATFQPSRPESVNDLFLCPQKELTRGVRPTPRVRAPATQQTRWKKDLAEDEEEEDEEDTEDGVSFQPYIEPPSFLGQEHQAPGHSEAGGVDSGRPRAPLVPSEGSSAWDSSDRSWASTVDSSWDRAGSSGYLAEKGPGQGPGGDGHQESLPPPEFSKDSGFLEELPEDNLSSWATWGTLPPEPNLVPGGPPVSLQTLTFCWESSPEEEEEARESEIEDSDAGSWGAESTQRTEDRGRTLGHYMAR", "T1 sequence (Q08334 whole entry, chain 2 of 2, further chain)": "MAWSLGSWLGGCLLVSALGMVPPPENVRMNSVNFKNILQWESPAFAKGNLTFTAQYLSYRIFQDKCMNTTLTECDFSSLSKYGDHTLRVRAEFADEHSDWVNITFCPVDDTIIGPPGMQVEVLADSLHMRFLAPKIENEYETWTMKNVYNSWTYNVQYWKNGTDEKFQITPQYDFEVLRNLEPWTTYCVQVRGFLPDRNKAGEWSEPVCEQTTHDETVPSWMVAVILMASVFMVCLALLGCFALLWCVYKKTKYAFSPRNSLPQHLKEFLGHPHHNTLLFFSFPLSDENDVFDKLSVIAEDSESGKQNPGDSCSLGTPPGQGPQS", "test": "cell-based or functional assay"}, "[2]": {"molecular_target": "T1, human IL-28 receptor on transfected 293 …", "test": "cell-based or functional assay", "remark": "listed apart in the source"}},
  "data": [
    {"binder": "B1", "values": [
      {"measurement": "ISRE Signaling of Transfected 293 Cells Following Class II Cytokine Stimulation (Fold Induction), ISRE-Luc./IL-28R, IL-28A 125 ng/ml", "setting": "[1]", "value": 125, "unit": "fold induction"}
    ]},
    {"binder": "B2", "values": [
      {"measurement": "ISRE Signaling of Transfected 293 Cells Following Class II Cytokine Stimulation (Fold Induction), ISRE-Luc./IL-28R, IL-29 125 ng/ml", "setting": "[1]", "value": 108, "unit": "fold induction"}
    ]},
    {"binder": "B3", "values": [
      {"measurement": "bioactivity in an ISRE assay", "setting": "[2]", "value": "30 fold higher than the C112-C171 form"}
    ]}
  ]
}
